Square brackets hold non-standard residues; d marks the D form. Ends that are not written are not given here. pY = N[C@@H](Cc1ccc(OP(=O)(O)O)cc1)C(=O)O
T1: hFGFR1 peptide, 22-residue peptide derived from the juxtamembrane region of hFGFR1 (residues 409-430 of SEQ … (named hFGFR1 (human); SEQ ID NO:2 is …)
T1 peptide: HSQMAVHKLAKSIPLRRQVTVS

B1: SNT-1 PTB domain (amino acid residues 11-140 of SEQ ID NO:1) (other)
chain: DTVPDNHRNKFKVINVDDDGNELGSGIMELTDTELILYTRKRDSVKWHYLCLRRYGYDSNLFSFESGRRCQTGQGIFAFKCARAEELFNMLQEIMQNNSINVVEEPVVERNNHQTELEVPRTPRTPTTPGLVPR

Tests used:
[1] = biological target: T1, hFGFR1 peptide, 22-residue peptide …; assay: isothermal titration calorimetry (ITC)
[2] = biological target: B1; assay: method not stated

Kd [1] | Kd [2] | fold higher affinity than for the FGFR derived peptide of SEQ ID NO:3 [2] | Binder
~10 µM |  |  | B1
 | ~1 µM | ~10 fold | LVIAGNPA[pY]RS [tyrosine-phosphorylated peptide LVIAGNPApYRS (SEQ ID NO:4)]

Source: US20060019296A1, “Methods of indentifying modulators of the FGF receptor” (Mount Sinai School of Medicine, published 2006)
